Assay results taken from the supplement of paper PMC9170038.

System: MS2 coat protein
Assay: apparent KD of MS2 coat protein; higher = weaker reporter binding
Conditions: Eterna round: R107
Method: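 RNA-MaP round R107: designed RNA switches with theophylline, tryptophan, arginine or FMN aptamers are transcribed on-chip within common flanks. They are titrated with SNAP-549-labelled MS2 coat protein in RNA-MaP buffer (100 mM Tris pH 7.5, 80 mM KCl, 4 mM MgCl2), without ligand or with the indicated ligand. Median apparent KD per design.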

[1] = input ligand: theophylline 20 uM
[2] = input ligand: theophylline 2 mM
[3] = input ligand: tryptophan 2.4 mM

Sequence	apparent KD of MS2 coat protein (input ligand: arginine 13.2 mM) [µM]	apparent KD of MS2 coat protein [1] [µM]	apparent KD of MS2 coat protein [2] [µM]	apparent KD of MS2 coat protein [3] [µM]	apparent KD of MS2 coat protein (input ligand: none) [µM]
AGGUACGAAAACGUGGGUGAGUCGUACCAACGAGGACCGGUACGGCCGCCACUCGAAUAAACAUGAGGAUCACCCAUGUAAUAAU [T''-M-T'-T-MS2 - Design 6]	0.025	0.0583	0.0665	–	–
CAAUGCGGUUAGGAUACCAGCGACACACACUUCUCACAACACAUGAGGAUCACCCAUGUCCGCCCUUGGCAGCCUUGACUAAGGU [theeternabot_exclusion_MS2_Theo_B_39]	0.0302	0.0518	–	0.0272	–
GAUCAAAGAUCACAUGAGGAUCACCCAUGUCGAGGACCGGUACGGCCGCCACUCGCGGCGGUGAAAAUAGAUACAAAGUAUCUAU [Ex_TrypA - ViennaApproves]	0.0401	0.0839	0.0861	–	–
GGCUGUCAUAGGAGGUGAAAUAUACUCGAAGGAGCGUCAUAGUAGGCAGGUAGGUCGCGAGACAUGAGGAUCACCCAUGUAGAGA [yyumullin]	0.0389	0.162	0.0677	0.0564	0.0539
GUAUUUAUAUGAAGGAGCGUCGAAAAUGGGUAAACAUGAGGAUCACCCAUGUAAAGGGAACGACAGGUAGGUCGCAUAUGGAUAC [AstromonsSSArgB#25]	0.111	0.251	0.279	0.239	0.16
GCCAAAGGCUACAUGAGGAUCACCCAUGUACGAGGACCGGUACGGCCGCCACUCGUACGGCCUCCUACUGGACGGGAAACCGUCG [ETA NP+V+V2 #28]	0.0131	0.0341	0.028	0.0332	0.0206
AGACAUGUAAGAUAAAUGACUUAUACAGAUACCAGACUAGUCAAUGUCCCUUGGCAGCUGCAUAACAUGAGGAUCACCCAUGUAA [JR_ExcTheophyA_Sub009]	0.0206	0.0275	–	0.0244	–
GUGCCGCAUUCACAUGAGGAUCACCCAUGUCGAGGACCGGUACGGCCGCCACUCGACGUGCUUACAGGUCCUUUACGGCCCAAUA [Biedxele]	0.0307	0.0713	0.0369	–	–
UGUAUGGACUGAAGGAGCGGGUAAUAAAUCUGAGGAUCACCCAGGUAAUAGGCGAAAGCCGCCCAGGUAGGUCGCAGUCCAUACU	0.0133	0.0275	0.0188	0.0231	0.0147
UGUAUGGACUGAAGGAGCGCCUCAAAAUAACAUGAGGAUCACCCAUGUAAGGCGAAAGCCGGGCAGGUAGGUCGCAGUCCAUACU [ArgBX 3 #StaticStem #MS2Late]	0.0158	0.0161	0.017	0.0127	0.0112
UGGCAAGAGGGAAGGAGCGUCAGCUGAGUCACAUGAGGAUCACCCAUGUAGCACAUAGUGUGACAGGUAGGUCGCCCUCUGCCGU [SS-ArgB10]	0.00672	0.0101	0.0103	0.00962	0.00882
AACAUGAGGAUUGAUACCAGUCCAUGAGGAUCACAUGAGGAUCACCCAUGUGGAACAUGAGGCCCUUGGCAGCAGUACAACAUGA [Same State Theophylline B]	0.0138	0.0172	–	0.0173	–
GCCGCCGGUGCUUCAUUCCCUGAGCGACGGCGAGGACCGGUACGGCCGCCACUCGGCUCGGUACAUGAGGAUCACCCAUGUCUUU [theeternabot_exclusion_MS2_Trp_A_11]	0.0307	0.0584	0.0608	–	–
UUGGUAGGACAGCUCAUAUAAGCAUGUGAUACCAGCUAGAAAACUAGCCCUUGGCAGCACUUUACAUGAGGAUCACCCAUGUCCC [EThA NP+V+V2 #2 +-Same Structure]	0.0688	0.258	–	0.145	–
UGUCAUGGAAACAUGACUGGUUCUACCGGUCGAGGACCGGUACGGCCGCCACUCGGUUGGUGGCACAUGAGGAUCACCCAUGUUA [SS Tryp A #13]	0.0285	0.0518	0.0447	0.0297	0.0303
CGCCGCGGGAGAAGGAGCGCGAUAACAUAACAUGAGGAUCACCCAUGUAAGAAAUUAAUCAUGCAGGUAGGUCGCUCCCGCGGCG [Same State Arginine B GF 4]	0.0163	0.0265	0.0233	0.0225	0.0195
UGUACUAUGUGAAGGAGCGAGAAUCCUACAUGAGGAUCACCCAUGUAAGAGCGAAAGCUCACUCAGGUAGGUCGCACAUAGUACU [#17 Same State - Arginine B]	0.0317	0.0441	0.0437	0.0488	0.0429
AAUUAUCAGUCGGCCGCCACUGACACAUGAGGAUCACCCAUGUAACUUGGGUUAAAUUUACUGAACAGGACCGGGACAAAGGCUA [JR_ExcTryptoB_Sub009]	0.114	0.193	0.203	–	–
UAUUAUCAGUCGGCCGCCACUGACACAUGAGGAUCACCCAUGUAAUUUGGGUUAUAUAUAAAUUACAGGACCGGGACAAAUGCUA [JR_Nu13_ExcTryptoB_Sub025]	0.161	0.366	0.368	–	–
